Drawing on patent US20090130104A1, this text covers half-maximal binding for one substance.

For the assay, the target named is murine PECAM-1 on cells (bEND3 endothelial cells; REN cells transfected with full-length mouse PECAM) (mouse) (UniProt Q08481). Description: flow cytometry on CD31 positive bEND3 endothelial cells. (In general: A flow cytometer gives signals particle by particle.)
murine PECAM-1 on cells (bEND3 endothelial cells; REN cells transfected with full-length mouse PECAM) (mouse), sequence (Q08481 18-727): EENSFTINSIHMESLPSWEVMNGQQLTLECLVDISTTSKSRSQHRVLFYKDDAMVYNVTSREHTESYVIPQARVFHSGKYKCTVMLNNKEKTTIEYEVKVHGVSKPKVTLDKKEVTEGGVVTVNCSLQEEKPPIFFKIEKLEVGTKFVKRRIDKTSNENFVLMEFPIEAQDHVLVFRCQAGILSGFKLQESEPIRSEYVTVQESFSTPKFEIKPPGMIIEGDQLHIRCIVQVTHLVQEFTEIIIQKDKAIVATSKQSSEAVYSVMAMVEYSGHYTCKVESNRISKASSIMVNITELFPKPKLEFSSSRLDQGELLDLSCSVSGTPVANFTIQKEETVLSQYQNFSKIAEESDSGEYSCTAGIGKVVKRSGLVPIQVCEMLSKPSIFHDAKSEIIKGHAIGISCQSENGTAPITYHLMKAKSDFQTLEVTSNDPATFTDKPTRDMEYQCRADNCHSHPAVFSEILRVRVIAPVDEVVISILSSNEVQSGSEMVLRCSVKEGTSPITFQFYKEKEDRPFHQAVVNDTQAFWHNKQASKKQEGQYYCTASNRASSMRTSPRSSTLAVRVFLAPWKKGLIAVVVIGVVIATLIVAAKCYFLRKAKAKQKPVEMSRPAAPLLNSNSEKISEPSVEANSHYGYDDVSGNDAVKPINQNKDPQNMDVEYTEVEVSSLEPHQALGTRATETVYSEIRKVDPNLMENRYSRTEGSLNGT

The substance “anti-PECAM scFv (from antibody 390) tagged with soluble tissue factor (sTF)” displayed a half-maximal binding of 50 nM.
